Source: the nanobody polyreactivity screen of Harvey et al. (2022)

Assay: yeast display, Sf9 membrane polyspecificity reagent, FACS + sequencing; frameworks hold sequencing errors
Summary of the method: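 Sorting gates, low and high (top ~1%), were placed on anti-HA fluorescence to track expression and on streptavidin fluorescence to track reagent binding. A clone's polyreactivity label is taken from the gate it came out of. The reagent was 10% biotinylated, detergent-solubilized Sf9 membrane, applied for 1 hour at 4 °C to galactose-induced yeast display cells.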

Row | Sequence | polyreactivity (PSR sort gate)
1 | QVQLVESGGGLVHAGGSLRLSCAACGRIFSRNAMGWYRQAPWKERELVAAITWRGGSTYYADSVKGRFTSSRDNAKNTVYLQMNSLKPEDTAVYYCNRDYRQYGYAYSGRFYWGHGTQVTVSS | high polyreactivity
2 | QVQLVESGGGLVHAGGSLRLSCAASARIFIAYMAWYRQAPGKERELVAAIDSGASTYYADSVKGRFTISRDNANNTVYLQMNSLKPEDTAVYYCAADVVYDYGGMDYWGQGTQVTVSS | low polyreactivity
3 | QVQLVESGGGLVHAGGSLRLSCAASGFIFARYAMGWYRQAPGKERELVAAINLSGGSTYYADSVKGRFTISRDNAKNTVYLQMNSLKPEDTAVYYCAATDPPYDAFEAKIDYQDFDYWGQGTQVTVSS | low polyreactivity
4 | QVQLVESGGGLVHAGGSLRLSCAASGFILTGNAMGWYRQAPGKERELVAAITSGGRTYYADSVKGRFTISRDNAKNTVYLQMNSLKPEETAVYYCAARRRWSQTPFDYWGQGTQVTVSS | high polyreactivity
5 | QVQLVESGGGLVHAGGSLRLSCAASGFTFRWYAMGWYRQAPGKERELVARIRGGGSTNYADSVKGRFTISRDNAKNTVYLQMNSLKPEDTAVYYCNTAYPWPPVKYDYWGQGTQVTVSS | high polyreactivity
6 | QVQLVESGGGLVHAGGSLRLSCAASGFTLHQYTMGWYRQAPGKERELVAAISDRGTRTYYADSVKGRFTISRDNAKNTVYLQMNSLKPEDPAVYYCAAYIAGVTGGSGYYYWGKGTQVTVSS | high polyreactivity
7 | QVQLVESGGGLVHAGGSLRLSCAASGIIFGVYAMGWYRQAPGKERELVAAISWSGGSTYYADSVKGRFTISRDNAKNNVYLQMNSLKPEDTAVYYCAADAYPHEDYYWGQGNQVTVSS | high polyreactivity
8 | QVQLVESGGGLVHAGGSLRLSCAASGIIFQYYLMGSYRPAPGKERELVAAIDKSGGSTYYADSVKGRFTISRDNAKNTVYLQMNSLKPEDTAVYYCAATSYAHKYYGYFGAIKYEYWGQGTQVTVSS | low polyreactivity
9 | QVQLVESGGGLVHAGGSLRLSCAASGLTFKRYAMGWSRQAPGKERELVASITGNGGSTYYADSVKGRFTISRDNAKNTVYSQMNSLKPEDTAVYYCNARRYVRTSQQPLYDYWGQGTQVTVSS | high polyreactivity
10 | QVQLVESGGGLVHAGGSLRLSCAASGRILGKYANGWYRQAPGKERELVAAINWRGGRTYADSVKGRFTISRDNSKNNVYLQMNSLKPEDTAVYYCAAVWQSPRPGYGYWGQGTQVTVSS | high polyreactivity
11 | QVQLVESGGGLVHAGGSLRLSCAASGRISSSYAMGWYRQAPGKERELVAAITSRGGSTYYADSVKGRFTISRDNAKNTVYLQMNSLKPEDTAVYYCAKYQYYRSTDDYWGQGTQVTVSS | low polyreactivity
12 | QVQLVESGGGLVHAGGSLRLSCAASGRTFAQNAMRRYRQAPWKERELVAAIRNGGRTNYADSVKGLFTISRDNAKNTVYLQMNSLKPEDTAVYYCAVKFNNRAKYGYWGQGTQVTVSS | high polyreactivity
13 | QVQLVESGGGLVHAGGSLRLSCAASGRTFAYNAMGWYRQAPGKERELVAAITRSTGNTYYADSVKGRFTISRDNAKNTVYLQMNSLKPEDTAVYYCAAAYAYWRKYDYWGQGTQVTVSS | high polyreactivity
14 | QVQLVESGGGLVHAGGSLRLSCAASGRTFIAYAMGWYRQAPGKERELVADISLRGGSTYYADSVKGRFTISRDNAKNTVYLQMNSLKPEDTAVYYCNTRRLHGWLYGYEYWGQGTQVTVSS | low polyreactivity
15 | QVQLVESGGGLVHAGGSLRLSCAASGRTFSAYAMGWYRQAPGKERELVAAISRSGGRTYYADSVKGRFTISRDNAKNTVYLQMNSLKPEDTAVYYCNALNLPDNQGTYDYWGQGTQVTVSS | high polyreactivity
16 | QVQLVESGGGLVHAGGSLRLSCAASGRTFVLYVMGWYRQAPGKETEFVADINAGGGSTYYADSVKGRFTISRDNAKNTVYLQMNSLKPEDTAVYYCAATRVLGQLFRFGYWGQGTQVSVSS | low polyreactivity
17 | QVQLVESGGGLVHAGGSLRLSCAASGRTFWSYAMGWYRQAPGKERELVAAIRTSDGITYYADSVKGRFTISRDNAKNTVYLQMNSLKPEDTAVYYCAAENWYKYDYWGQGTQVTVSS | low polyreactivity
18 | QVQLVESGGGLVHAGGSLRLSCAASGRTFWTYAMGWYRQAPGKERELVAAISSGGSTYYADSVKGRFTISRDNAKNTVYLQMNSLKPEDTAVYYCATRVYGGYGYWGQGTQVTVSS | high polyreactivity
19 | QVQLVESGGGLVHAGGSLRLSCAASGRTFYANAMGWYRQAPGKERELVAAISSRSGTTHYADSEKGRFTISRDNAKNSVYLQMNSLKPEETAVYYCAVRYYRRRYDYWGQGTQVTVSS | low polyreactivity
20 | QVQLVESGGGLVHAGGSLRLSCAASGRTFYRYGMGWYREARGKERELVAAISNRGGTTYYADSLKGRFTISRDNAKNTVYLQMNSLKPEDTAVYYCAADSVYAEYDSWGQGTQVTVSS | low polyreactivity
21 | QVQLVESGGGLVHAGGSLRLSCAASGSIFEGYAMGWSRQAPGKERELVAAISRSGGSTYYADSVKGRFTISRDNAKNSVYLQINRLTPEATAVYYCAARKAIDYQGRHDHWGQGTQVTVSS | low polyreactivity

Row | Sequence | polyreactivity (PSR sort gate)
22 | QVQLVESGGGLVHAGGSLRLSCAASGSIFGFYTMGWYRQAPGKERELVAAITWSGGRTYYADSVKGRFTISRDNAKNTVYLQMNSLKPEDTAVYYCNRDGRSRWYYASAGYNYWGQGTQVTVSS | high polyreactivity
23 | QVQLVESGGGLVHAGGSLRLSCAASGSIFRRNAMGMSRQAPGKERELVASITSGASTYYADSVKGRFTISRDNAKNTVYIQMNSLKPEDTAVYYCAADIFVTAFASPMDYWGQGTQVTVSS | low polyreactivity
24 | QVQLVESGGGLVHAGGSLRLSCAASGSIFVVYTMGWYIQAPGKERELVADISASGGRTYYADSVKGRFTISSDNAKNTVYLKMNRLKPEDTAVYYCARVWYSSYSSESYSDHDYWGQGTQGTVSS | high polyreactivity
25 | QVQLVESGGGLVHAGGSLRLSCAASGSIFYPYAMGWYRKAPGKERELVAAISRSGGRTYYADSVKGRFTISRDNAKNTVYLQMNSLKPEDTAVYYCNAYYPGNGPRSTSTRYEYWGQGTQVTVSS | high polyreactivity
26 | QVQLVESGGGLVHAGGSLRLSCAASGSILNGYVMGWYRQAPGKERELVGTYYADSVKGRFTISRDNAKNTVYLQMNSLKPEDTAVYYCAADIGDGSEFDYWGLGTQVTVSS | low polyreactivity
27 | QVQLVESGGGLVHAGGSLRLSCAASGSILSSYAMGWYRQAPGKERELVAAINSGGSTNYADSVKGRFTISRDNAKNTVYLQMNSLKAEDTAVYYCNADYSYGTTLDYWGQGTHVTVSS | low polyreactivity
28 | QVQLVESGGGLVHAGGSLRLSCAASGSIYPSYGMGWYRQAPGKERELVARITSGGGTNYADSVKGRFTISRDNAKNTVYLQMNSLKPEDTAVYYCAAQSTTIEDGWYVEYNYWGQGTQVTVSS | high polyreactivity
29 | QVQLVESGGGLVHAGGSLRLSCAASGSIYPYYAMGWYRQAPGKERELVAVISRGGVRTYYADSVKGRFTISRDNAKNTVYLQMNSLKTEDTAVYYCAAGYPYGVDYWGQGTQVTVSS | high polyreactivity
30 | QVQLVESGGGLVHAGGSLRLSCAASGSTFARYAMGWYRPAPGKERELVAVIRSGGSTNYADSVKGRFTISRDNAKNTVYLQMNSLKPEDTAGAADQWTIHRWATYGYWGQGTQVTVSS | low polyreactivity
31 | QVQLVESGGGLVHAGGSLRLSCAASGSTFDVYVMGWYRQAPGKEREMVAAISSGDDTNYADSVKGRFTISRDNAKNTVYLQMNSLKPEDTEVYYCNADYFDYSRPRYDYWGQGTQVTVSS | low polyreactivity
32 | QVQLVESGGGLVHAGGSLRLSCAASGSTFGINAMGWYRQAPGKERELVAAITRGGSTKYADSVKGRFTISRDNAKKTVYLQMNSLKPEDTAVYYCNKRPWHRSSRPFYYWGQGTQVTVSS | high polyreactivity
33 | QVQLVESGGGLVHAGGSLRLSCAASGSTFKGYAMGWYRQAPGKERELVASIRSSSGSTYYADSVKGRFTISRDNAKNTVYLQMNSLKPEDTAVYYCATALWVRYYGQGGYIRRYDYWGQGTHVTVSS | high polyreactivity
34 | QVQLVESGGGLVHAGGSLRLSCAASGSTFLPNAMVWYRQSHGKERELVAAISYRGGGTFYADSVKGRFTISRDNAKNTVYLQMNSLKPEDTAVYYCAADWSWFDNFDYWGQGTQVTVSS | low polyreactivity
35 | QVQLVESGGGLVHAGGSLRLSCAASGSTFYYNAMGWYRQAPGKERELVAAITKSGDDTYYADSEKGRFTISRDNATNTVYLQMNSLKPEDTAVSYCAAYLSWYDYWGQGTQVTVSS | low polyreactivity
36 | QVQLVESGGGLVHAGGSLRLSCAASGSTFYYYAMGWYRQAPGKERELVAAIRGDSTYYADSVKGRFTISRDNAKYTVYLQMYSLKTEDTAFYYCAADWYDTGFWWTYPYDYWGQGTQVTVSS | low polyreactivity
37 | QVQLVESGGGLVHAGGSLRLSCAASGSTVSYYAMGWYRQAPGKERELVAAISTRGSSTYYADSVKGRFTISRDNAKNTVYFQMNSLKPEDTAVYYCAVDQYKYDWFYDYYGYTYGYWGQGTQVTVSS | high polyreactivity
38 | QVQLVESGGGLVHAGGSLRLSCAASGYTFRYYAKGWYRQAPGKERELVAAINSGDITNYADSVKGRFTITRDNAKTTVYLQMNSLKPEDTAVYFCARSTFSLYDYWGQGTQVTVSS | low polyreactivity
39 | QVQLVESGGGLVHAGGSLRLSCAASGYTFTYYVMGWYRQAPGKEREFVAGIRNGGGRMYYADSVKGRFTISRDNAKNTVYFQMNSLKPEDTAVYYCNAGYGTYYSGVYWRGEMDYWGQGTQVTVSS | high polyreactivity
40 | QVQLVESGGGLVHAGGSLRLSCAASRRNFTRNAMGWYRQAPGKERELVAAIRRGGRTNYADSVKGRFTISRDNAKNTVYLQMNSLKPEETAVYYCNKAGWLKWAPRQYYYWGQGTQVTVSS | high polyreactivity
41 | QVQLVESGGGLVHAGGSLRLSCYATGIILDRYTMGWYRQAPATERELVAAISRSGGITYYADSVKGRFTISRDNAKNTVYLQMNSLKQEDTAVYYCAAKYFDHRQTAYEYWGQGTHVTVSS | high polyreactivity
